# From patent US20250179187A1, “ANTI PD-L2 ANTIBODY” (REJUVERON SENESCENCE THERAPEUTICS AG, priority 2022, published 2025)
# B1: VH0/VK0-mIgG1: parental murine anti-PD-L2 antibody on mIgG1 backbone; SEQ ID NO: 21/SEQ ID NO: 22 (antibody, V domains shown)
# VH: QVQLQQSGAELVRPGTSVKVSCKASGYAFSNYFIEWVKQRPGQGLEWIGLNIPGSGGSNYAEKFKGKATLTADKSSSTAYMQLSSLTSEDSAVYFCARRRLPPDWYFDVWGTGTTVTVSS
# VL: DVVMTQTPLSLPVSLGDQASISCRSSQSLVHSDGNTYLHWYLQKPGQSPKLLIYKVSNRFSGVPDRFSGSGSGTDFTLKISRVEAEDLGVYFCSQSTHVPWTFGGGTKLEIK
# Tests used:
# [1] = target: T1, recombinant hPD-1 binding to CHOK-1 cell expressing hPD-L2 (Homo sapiens, UniProt Q9BQ51); assay: Blocking of recombinant hPD-1 binding to cellular hPD-L2 by flow cytometry; format: cell-based; settings: compared to a panel of commercially available anti-PD-L2 antibodies
# T1 construct: GFP; host or cells: CHO-K1
# T1 sequence (Q9BQ51 20-273): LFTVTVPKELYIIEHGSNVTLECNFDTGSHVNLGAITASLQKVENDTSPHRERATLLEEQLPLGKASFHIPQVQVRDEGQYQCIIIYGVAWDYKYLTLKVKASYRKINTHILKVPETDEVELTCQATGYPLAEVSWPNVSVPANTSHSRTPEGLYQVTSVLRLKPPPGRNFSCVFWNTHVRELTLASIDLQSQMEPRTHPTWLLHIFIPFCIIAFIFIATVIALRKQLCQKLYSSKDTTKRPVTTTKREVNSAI
# Description: CHO-K1 cells over-expressing either hPDL2-GFP were detached, washed in phosphate buffered saline (PBS) and adjusted to a cell concentration of around 1 million cells in CB. Around 80,000 cells were then distributed into a round-bottom 96 well plate and the plate was centrifuged for 3 minutes at 400 g at 4° C. and supernatant discarded. A constant concentration of ligand recombinant hPD-1 ligand (Sino Biological 10377-H08H/lot LC13JA2207) of 15 micrograms/mL was incubated with respective concentration of antibody, added to the cells and incubated for 30 min at 6-8° C. Cells were washed 3 times in PBS and then incubated with a rabbit polyclonal anti-His (Abcam Ab1187/lot GR3369369-1) in CB and subsequently washed three times in PBS. Cells were then incubated with a labeled anti-rabbit secondary (AlexaFluor 647 Goat anti-Rabbit IgG (H+L) (Invitrogen A21244/lot 1910774) for 15 minutes at 4° C., washed two times in PBS, resuspended in CB and analyzed in the Sony ID7000 Spectral Cell analyzer (Sony).
# recombinant mPD-L2 = target: T2, recombinant mPD-L2 (Mus musculus, UniProt Q9WUL5); assay: ELISA for mPDL2; format: binding
# T2 construct: purchased Sino Biological 50804-M08H-B
# T2 sequence (Q9WUL5 20-247): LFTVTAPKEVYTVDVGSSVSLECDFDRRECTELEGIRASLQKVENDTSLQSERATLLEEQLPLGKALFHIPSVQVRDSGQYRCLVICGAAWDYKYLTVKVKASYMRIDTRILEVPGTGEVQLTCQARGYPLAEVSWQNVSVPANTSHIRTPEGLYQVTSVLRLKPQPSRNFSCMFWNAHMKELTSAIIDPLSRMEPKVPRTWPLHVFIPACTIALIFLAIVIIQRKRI
# Description: ELISA plates were coated with recombinant mPDL2 (Sino Biological, cat 50804-M08H-B, lot LC10SE0706) at a concentration of 2 micrograms/milliliter at 4° C. for 15 h. Coating was then washed two times with PBS and blocked with 0.5% bovine serum albumin (BSA)/PBS at 37° C. for one hour. Blocking was removed and appropriate antibody concentrations diluted in 0.5% BSA/PBS for 1 hour at 37° C. Plates were then washed five time in PBS and a goat anti-mouse-HRP (Jackon Immuno Research cat #115-035-071) diluted in 0.5% BSA/PBS was added and incubated for 30 minutes at 37° C. Plates were washed again five times with PBS and TMB substrate (Medicago cat #10-9405) was added for 30 minutes at 37° C. in the dark. Reaction was stopped with 1N HCl and read and optical densities read on a standard spectrophotometer plate reader at […].
# PyMT spontaneous tumors = assay: Spontaneous mouse PyMT breast tumor model with tumor immunostaining; format: in vivo
# Description: Hemizygous transgenic PyMT mice were allowed to develop tumors to an average size of around 200 cubic millimeters, usually around 9 weeks, at which time treatment was initiated, with N=3-5 per treatment group. Doxorubicin (Aurovitas) was administered intraperitoneally once per week at 4 mg/kg and antibodies were administered every three days at a dose of 10 mg/kg during four weeks or 3 mg/kg where noted. Vehicle-treated animals received only vehicle solvent for doxorubicin as a no-treatment control. Tumors were measured with a standard caliper once per week. At the end of the study, tumors were resected and further analyzed by immunohistochemistry.
# For the depleting study, the same treatment regimen described above was carried out but in combination with CD4 or CD8-depleting antibodies (BioXCell), administered on day −1, day 0 and weekly thereafter at a dose of 200 micrograms per animal.
# For double SA-beta-galactosidase/PD-L2 staining, following resection, tumors were fixed in 2% paraformaldehyde and 0.2% glutaldehyde in PBS for 2 hours at room temperature. Samples were washed in PBS for 15 minutes then stained by standard procedures for SA-beta-galactosidase activity overnight. Following this, tumors were washed in PBS for 15 minutes, dehydrated in 70% ethanol and embedded in paraffin, sectioned, and stained for PDL2 with an anti-PDL2 antibody (Cell Signaling, D6L5A cat #49189) by standard immunohistochemistry techniques. To quantify the number of cells double positive for SA-beta-galactosidase and PDL2, 3 random fields from 2 mammary glands from each animal in each treatment group was analyzed with Image J software. Staining for CD3, CD4 and CD8 was also carried out by standard immunohistochemistry techniques on paraffin-embedded material and quantified according to pixel density using Image J software.
# recombinant hPD-L2 = target: T3, recombinant hPD-L2 (Homo sapiens, UniProt Q9BQ51); assay: ELISA with recombinant hPD-L2; format: binding; settings: compared to a panel of commercially available anti-PD-L2 antibodies
# T3 sequence (Q9BQ51 20-273): T1 sequence (Q9BQ51 20-273)
# PyMT mammary tumor = assay: Implantable mouse PyMT mammary tumor model; format: in vivo; settings: in combination with doxorubicin, up to day 49, compared to TY-25 in combination with doxorubicin
# Description: 1 million PyMT cells were injected in PBS into the right mammary fat pad number 4, with an N=10 animals per treatment group. When tumors reached an average of 100 millimeter cubed on day 17 post-injection, treatment regimens were initiated. All mice were sorted into study groups based on caliper estimation of tumor burden. The mice were distributed to ensure that the mean tumor burden for all groups was within 10% of the overall mean tumor burden for the study population. The first dose of doxorubicin was administered intraperitoneally at 4 mg/kg, as well as the antibodies, all at doses of 10 mg/kg intraperitoneally, on day 17 post-implantation. Doxorubicin (MWI Animal Health, BJ0080A/NA) was administered once more on day 24 and antibodies on days 20, 24, 27, 31, 34, 38, 41. The following commercial antibodies were used in the study: anti-mouse PD-L2 (clone TY-25, Bio X Cell lot/cat 0411901. Vehicle-treated animals received only vehicle solvent for doxorubicin as a no-treatment control. Tumor volume was measured at least 2-3 times per week throughout the study with a standard caliper.
molecule,measurement,setting,value
B1,blocking activity against recombinant hPD-1 binding to CHOK-1 cell expressing hPD-L2,[1],superior blocking activity
same,cross-reactivity to recombinant mPD-L2,recombinant mPD-L2,shows cross-reactivity
same,final tumor volume,"PyMT spontaneous tumors; 3 mg/kg antibody with doxorubicin over four weeks, compared to doxorubicin alone or TY-25 and doxorubicin",greater reduction in final tumor volume
same,tumor growth,PyMT spontaneous tumors; combination with doxorubicin vs doxorubicin and mIgG1 control,inhibited tumor growth more
same,"relative numbers of CD3+, CD8+ and CD4+ cells in PyMT spontaneous tumors","PyMT spontaneous tumors; combination with doxorubicin, compared to vehicle or doxorubicin-only treated mice (p<0.05)",increased relative numbers
same,inhibition of tumor progression under depleting antibodies against CD4+ cells,PyMT spontaneous tumors; doxorubicin and antibody plus CD4-depleting antibodies,only slightly relieved this inhibition
same,inhibition of tumor progression under depleting antibodies against CD8+ cells,PyMT spontaneous tumors; doxorubicin and antibody plus CD8-depleting antibodies,relieve the inhibition
same,cells double-positive for PD-L2 and SA-βGal in PyMT tumors,"PyMT spontaneous tumors; immunohistochemistry, antibody co-treated with doxorubicin vs Vehicle or Doxorubicin+mIgG1 (p<0.05)",significantly lower
same,binding activity against recombinant hPD-L2,recombinant hPD-L2,superior binding activity
same,progression of tumors,PyMT mammary tumor,smaller progression of tumors
